In assay [1] the target is RSV postfusion F (postF), F ΔFP (Respiratory syncytial virus, UniProt P03420 26-513). In words: BLI, IgG on anti-human IgG sensor.
The target in assay [2] is RSV prefusion F (preF), DS-Cav1 (Respiratory syncytial virus, UniProt P03420 26-513). In words: BLI, IgG on anti-human IgG sensor, 100 nM antigen. Background: Biolayer interferometry detects binding as a change in optical thickness at a sensor tip.
The target of the next assay is RSV F on RSV-A2 virus (Respiratory syncytial virus, RSV-A2, UniProt P03420 26-574). The assay can be described thus: cell-based or functional assay.
Assay [3] has as its target RSV F on RSV subtype A virus (RSV-A2) (Respiratory Syncytial Virus, subtype A, …, UniProt P03420 26-574). In words: cell-based or functional assay.
Assay [4] concerns the target RSV postfusion F (postF), F ΔFP trimer, subtype A (Respiratory Syncytial Virus, subtype A, UniProt P03420 26-513). In words: BLI, IgG (Table 9A).
The target in assay [5] is RSV prefusion F (preF), DS-Cav1 stabilized trimer, subtype A (Respiratory Syncytial Virus, subtype A, UniProt P03420 26-513). In words: BLI, apparent IgG KD (Table 9A).

Where a chain is given by its changes, count along the chain named. Bounds are passed on as bounds.

B1: ADI-41601 (antibody, V domains shown)
VH: EVQLLESGGGLVKPGGSLRLSCAGSGFRFSDYYMTWIRQAPGKGLEWVSYISSSSTYTYYTDSVKGRFTVSRDNAKNSLYLQMNTLRAEDTAIYYCAISNRYDSRTFYYDYWGQGTLVTVSS
VL: QSVLTQPPSVSGAPGQRVIISCTGSSSNIGAGYDVHWYQQFPGTAPKLLIYGNNNRPSGVPERFSGSKSGTSASLAITGLQADDEADYYCQSYDSLSEVVFGGGTKVTVL
notes: also called Ab 875; Antibody Number 875
Regarding B1, the binding result in assay [1] is recorded as “no binding (tested: 100 nM antigen)”. Moreover, the Kd in assay [2] was 0.503 nM. Moreover, in the assay with RSV F on RSV-A2 virus, the “Neutralization IC50 (RSV subtype A)” value is above 25 mg/L.

B2: ADI-41203 (antibody, V domains shown)
VH: QVQLVQSGAEVRKPGESLKISCKASGYRFTNYWIGWVRQMPGKGLEWMGVIYPGDSDTRYSPSFQGQVTMSADKSTNTAYLQWSSLKASDTAIYYCVSLYSDYDYGALDYWGQGTLVTVSS
VL: EIVMTQSPATLSVSPGERATLSCRASENVGRNLAWYQQKPGQAPRLLIYGASIRATGILARFSGSGSGTEYTLTISSLQSEDFAVYYCQQYHDWPSFTFGPGTKVDIK
In the case of B2, in assay [3], the “Neutralization - RSV A2 IC50 (pM)” value came out at 23.9 pM and the “neut IC50 (ug/ml) subtype A (wright)” value worked out at 0.006 µg/mL. For the same molecule, in assay [4], the binding result is reported as “no binding”. For the same molecule, the Kd in assay [5] amounted to 0.4 nM.

B3: ADI-41578 (antibody, V domains shown)
VH: EVQLVESGGGVVQPGRSLRLSCAASGFTLSSYVMDWVRQAPGKGLEWVAVISYDGSSKYYADSVKGRFTVSRDNSNNAMYLQMNSLRAEDTAVYYCARDPYYDILTGYSYFDYWGHGTTVTVSS
VL: SYVLTQPPSVSGAPRQTATITCGGNNIGSKSVNWYQQKPGQAPVLVVYDDSARPSGIPERFSGSNSGNTATLTVSSVEAGDEADYFCQVWDTSSAPYPWVFGGGTKLTVL
notes: also called Ab 852; Antibody Number 852
As for B3, the binding result in assay [1] is recorded as “no binding (tested: 100 nM antigen)”. In addition, the Kd in assay [2] amounted to 0.249 nM. Also, the “Neutralization IC50 (RSV subtype A)” value with RSV F on RSV-A2 virus came out at 0.0398 mg/L.

B4: ADI-41590 (antibody, V domains shown)
VH: EVQLVQSGGGLVKPGGSLRLSCTASGFTFSDHYMSWIRQAPGKGLEWISYISSTSSFTNYANSVKGRFTISRDNAKNSLYLQMNSLRAEDTAVYYCARDRSILYSGYSLDYWGQGTLVTVSS
VL: DIQMTQSPSSLSASVGDRVTISCRASQSILNYLNWYQHKPGKAPKLLIYAASSLQSGVPSRFSGSGSGTDFTLTISGLQPEDFATYYCQQSDSTRTFGQGTKVEIK
Consider B4, for which, in assay [1], the binding result is “no binding (tested: 100 nM antigen)”. The Kd in assay [2] was 3.02 nM. Moreover, the “Neutralization IC50 (RSV subtype A)” value with RSV F on RSV-A2 virus was above 25 mg/L.

B5: ADI-36678 (antibody, V domains shown)
VH: EVQLVQSGGGLVQPGGSLRVSCAASGLTVSTNYMSWVRQLPGKGLEWVSVIYSGGNTYYADSVKGRFTISRDNSKNIVYLEMNSLRIEDTAVYYCARAHLNNWFVSVTDTKDYYFDYWGQGTLVTVSS
VL: SYELTQPPSVSVLPGQTASITCSGDKLGDKYASWYQQKPGQSPILVVFQDDKRPSGIPERFSGSNSGNTATLTISGTQATDEADYYCQACDRNTGVFGTGTKLTVL
Turning to B5, in assay [1], the binding result is recorded as “no binding (tested: 100 nM antigen)”. Further, the Kd in assay [2] came out at 0.716 nM. Also, the “Neutralization IC50 (RSV subtype A)” value with RSV F on RSV-A2 virus was found to be 0.006 mg/L.

B6: ADI-41609 (antibody, V domains shown)
VH: QVQLVESGAEVKKPGASVKVSCKASGYSFTSYYMHWVRQAPGQGLEWMGVISTNGGTASYSQNFRGRVTLTRDTSTSTAYMELSSLTSEDTAVYYCVREGYCNGGSCSYFDSWGQGTLVTVSS
VL: QSVLTQPPSVSGAPGQRVSISCTGSSSNIGAGYDVHWYQQLPGTAPKVLIYGNNYRPSGVPDRFSGSKSGTSASLAITGLQTEDEADYYCQSYDSRLSVVFGGGTKLTVL
On to B6, for which the binding result in assay [1] was “no binding (tested: 100 nM antigen)”. Further, the Kd in assay [2] amounted to 29.1 nM. Also, in the assay with RSV F on RSV-A2 virus, the “Neutralization IC50 (RSV subtype A)” value was above 25 mg/L.

B7: ADI-36676 (antibody, V domains shown)
VH: EVQLLESGGGVVQPGRSLRLSCAASGFSFRNYDMHWVRQAPGKGLEWVAIISYDGSNKYADSVKGRFTISRDTSKNTLYLQMNSLRVEDTAVYYCARADSSGYYKGSEYFQHWGQGTLVTVSS
VL: SYELTQLPSVSVAPGQTARITCGGNNIGTKSVQWYQHKPGQAPVLVVYDDSDRPSDIPERFSGSNSGNTATLTISRVEAGDEADYYCQVWDSSSDHYVFGTGTKLTVL
notes: also called Ab 832; Antibody Number 832
Regarding B7, in assay [3], the “Neutralization - RSV A2 IC50 (pM)” value came out at 130 pM and the “neut IC50 (ug/ml) subtype A (wright)” value worked out at 0.006 µg/mL. For the same molecule, the binding result in assay [4] is “no binding”. In addition, the Kd in assay [5] was determined as 0.28 nM.

B8: ADI-36676 (antibody, V domains shown)
VH: B7 VH
VL: B7 VL
notes: as for B7
Regarding B8, in assay [1], the binding result is listed as “no binding (tested: 100 nM antigen)”. Besides, the Kd in assay [2] stood at 0.282 nM. Moreover, in the assay with RSV F on RSV-A2 virus, the “Neutralization IC50 (RSV subtype A)” value is 0.006 mg/L.

B9: ADI-36677 (antibody, V domains shown)
VH: QVQLVQSGGGLVQPGGSLRLSCAASGFTFSSYEMNWVRQAPGKGLEWISYISSSGDTKYYADSVKGRFTVSRDNAKYSLYLQMDSLRAEDTAVYYCASLYDSRGYYWVFDYWGQGTLVTVSS
VL: DIVMTQSPSSLSASVGDRVTITCQASQDISTYLNWYQHKPGKAPNLLIYDASNLEPGVPSRFSGSGSGTDFTFTISSLQPEDIATYYCLQHDNLPPTFGQGTKVDIK
Turning to B9, in assay [3], the “Neutralization - RSV A2 IC50 (pM)” value stood at 144 pM and the “neut IC50 (ug/ml) subtype A (wright)” value was found to be 0.019 µg/mL. Besides, the binding result in assay [4] is recorded as “no binding”. In addition, the Kd in assay [5] amounted to 0.54 nM.

B10: ADI-36672 (antibody, V domains shown)
VH: EVQLVESGGGLVKPGGSLRLSCAASGFAFNNYYMNWVRQAPGKGLEWVSSISSASTYTDYADSVKGRFTISRDNAKNSLYLHLNSLRAEDTAVYYCARDYYGSGNYYNPKPLDVWGQGTTVTVSS
VL: QPVLTQPPSVSGAPGQRVTISCTGSSSNIGAGYDVHWYRQFPGTAPELLIYGNTNRPSGVPDRFSGSKSGTSASLAITGLQAEDEADYYCQSYDSSLKGVFGGGTKLTVL
Turning to B10, in assay [3], the “Neutralization - RSV A2 IC50 (pM)” value turned out to be 207 pM and the “neut IC50 (ug/ml) subtype A (wright)” value worked out at 0.018 µg/mL. The binding result in assay [4] is listed as “no binding”. Further, in assay [5], the Kd was 0.7 nM.

B11: ADI-36673 (antibody, V domains shown)
VH: QVQLVQSGGGLVKPGGSLRLSCAASGFTFRDFYMSWIRQAPGKGLEWVSNISPSSTYTNYADSVKGRFTISRDNAKNSLYLQMNSLRAEDTAVYYCVKSEGYSSGWYDYWGQGTLVTVSS
VL: QPVLTQPPSVSGAPGQRVTISCTGSSSNIGAGYDVNWYHQLPGAAPKLLIYTNSNRPSGVPDRFSGSKSGTSASLAITGLQAEDEADYYCQSYDSSLSGYVFGTGTKLTVL
notes: also called Ab 830; Antibody Number 830
For the molecule B11, the binding result in assay [1] is given as “no binding (tested: 100 nM antigen)”. Also, the Kd in assay [2] turned out to be 0.62 nM. In addition, in the assay with RSV F on RSV-A2 virus, the “Neutralization IC50 (RSV subtype A)” value was 0.02 mg/L.

B12: ADI-41591 (antibody, V domains shown)
VH: QVTLKESGGGLVKPGGSLRLSCAASGFTFSDYYMSWIRQAPGKGLEWVSYISSSSSYTNYADSVKGRFTISRDNAKNSLYLQMNSLRAEDTAVYYCAREAVAAAGTDYFDYWGQGTLVTVSS
VL: B11 VL with P2S, N36H, H39Q, L41P, G43R, A44T, T52G
notes: also called Ab 865; Antibody Number 865
As to B12, in assay [1], the binding result is “no binding (tested: 100 nM antigen)”. In addition, the Kd in assay [2] came out at 4.26 nM. Moreover, the “Neutralization IC50 (RSV subtype A)” value with RSV F on RSV-A2 virus was above 25 mg/L.

B13: ADI-36669 (antibody, V domains shown)
VH: EVQLVQSGAEVKKPGASVRVYCKASGYTFTTYYIHWVRQAPGQGLEWMGMINPSGGTTSYAQKFQGRLTMTGDTSTSTVYMELNYLRSEDTAVYYCTRDFIYFYGSGDGFDYWGQGTLVTVSS
VL: EIVMTQSPSAMSASVGDRVTITCRASQGISNYLAWFQQKPGKVPKRLIYAASSLQSGVPSRFSGSGSGTEFTLTITSLQPEDFATYYCLQHNSYPFTFGPGTKVEIK
Regarding B13, in assay [3], the “Neutralization - RSV A2 IC50 (pM)” value turned out to be 111 pM and the “neut IC50 (ug/ml) subtype A (wright)” value was 0.025 µg/mL. In assay [4], the binding result is on record as “no binding”. Also, the Kd in assay [5] came to 1.1 nM.

B14: ADI-41567 (antibody, V domains shown)
VH: QVQLQQWGAGLLKPSETLSLTCEVYGGSFSGYYWTWFRQPPGEGLEWIGEINHSGGTNYNPSLKSRVTMSVDASINQFSLQLSSVTAADTSVYYCARGHYYNTNDFYGLFDYWGQGTLVTVSS
VL: DIRLTQSPSFLSASVGDRVTITCRASQGISTYLAWYQQKPGKAPKLLLYAASTLHSGVPSRFSGSGSGTEFTLTISSLQPEDFATYYCQQLNRYPPSTFGPGTKLEIK
notes: also called Ab 845; Antibody Number 845
Consider B14, for which the binding result in assay [1] was “no binding (tested: 100 nM antigen)”. The Kd in assay [2] was determined as 0.717 nM. Besides, the “Neutralization IC50 (RSV subtype A)” value in the assay with RSV F on RSV-A2 virus is 0.0505 mg/L.

B15: ADI-41191 (antibody, V domains shown)
VH: QVQLVQSGAEVKRPGASVKVSCKASGYIFSHYGISWVRQAPGQGLEWMAWISAYNGNTNYAQKLQGRVTVTTDTSTSTAYMELRSLRSDDTAVYYCAREPPSLSAAATLDYWGQGTLVTVSS
VL: EIVMTQSPLSLPVTLGQPASISCRSNQSLVYSDGNIYLSWFQQRPGQSPRRLIYKVSNRDSGVPDRFSGSGSGTDFTLKISRVEAEDVAVYYCMQVTHWPHEFGQGTKLEIK
As for B15, in assay [3], the “Neutralization - RSV A2 IC50 (pM)” value was 154 pM and the “neut IC50 (ug/ml) subtype A (wright)” value was determined as 0.071 µg/mL. In addition, in assay [4], the binding result is “no binding”. For the same molecule, the Kd in assay [5] was determined as 0.5 nM.
